{"source": "patent US20240261221A1", "about": "“POLYOL-MODIFIED LIPID COMPOUND AND PREPARATION METHOD AND APPLICATION THEREOF” (JENKEM TECHNOLOGY CO., LTD. (TIANJIN), priority 2021, published 2024)", "molecules": {"B1": {"name": "Positive control group: 0.15 mg/mL ovalbumin solution, available from Sigma, USA (protein, UniProt P01012 2-386, looked up)", "Ovalbumin": "GSIGAASMEFCFDVFKELKVHHANENIFYCPIAIMSALAMVYLGAKDSTRTQINKVVRFDKLPGFGDSIEAQCGTSVNVHSSLRDILNQITKPNDVYSFSLASRLYAEERYPILPEYLQCVKELYRGGLEPINFQTAADQARELINSWVESQTNGIIRNVLQPSSVDSQTAMVLVNAIVFKGLWEKAFKDEDTQAMPFRVTEQESKPVQMMYQIGLFRVASMASEKMKILELPFASGTMSMLVLLPDEVSGLEQLESIINFEKLTEWTSSNVMEERKIKVYLPRMKMEEKYNLTSVLMAMGITDVFSSSANLSGISSAESLKISQAVHAAHAEINEAGREVVGSAEAGVDAASVSEEFRADHPFLFCIKHIATNAVLFFGRCVSP"}}, "key": {"KDR mRNA": {"tested_on": "KDR mRNA", "assay": "Gene inhibitory effect of siRNA-PEG-lipid particle composition after cell delivery in A375 cells", "format": "cell-based", "details": "particles prepared from PEG-lipids and anti-KDR siRNA, 24 h and 48 h after transfection", "experimental": "(1) ARPE-19 cells were cultured in a DMEM/F12+12% FBS+double antibody medium (containing 100 U/mL Penicillin, 100 μg/mL Streptomycin) and placed in an incubator at 37° C. with 5% CO2 and saturated humidity. 24 h before the experiment, the cells were seeded onto a 12-well plate at 1.2×10^5 cell/well and cultured overnight. (2) 50 μL of diluted anti-KDR siRNA:compound 1 (1:10), anti-KDR siRNA:compound 2 (1:10), and anti-KDR siRNA:compound 3 (1:10) (in molar ratios: the siRNA concentration was 20 μM) from […] with an OPTI-MEM culture medium were separately mixed with 50 μL of a diluted Lipofectamine 3000™ transfection reagent from 3 μL with an OPTI-MEM culture medium for positive control, followed by gently shaking, and the mixed solutions were left to stand for 15 min. In addition, a blank group, an NC group, and an NC-RL group were set.\nAnti-KDR siRNA is an siRNA that inhibits VEGFR2 mRNA expression, and the preparation method therefor is described in patent document CN202010229195.2: the sequence is as follows: • Sense strand: 5′-GGAGUGAGAUGAAGAAAUU-3′; • Antisense strand: 5′-AAUUUCUUCAUCUCACUCC-3′. (3) The medium was refreshed for the cells in each well in the cell plate, an antibiotic-free culture medium was added at 900 μL/well, and then 100 μL of the mixed solution was added into each well, finally the total volume of each well being 1000 μL. The siRNA (or siRNA NC, or siR-NC RL) transfection concentration was 50 nM. (4) 24 h and 48 h after transfection, the 12-well plate was taken out from the incubator at 37° C. with 5% CO2, and the cells were harvested for RNA extraction for subsequent detection.\nThe relative expression level of KDR mRNA was calculated by AACt with GAPDH as an endogenous reference gene: mRNA expression levels were normalized for each group with the expression level for the blank group as 100%.\nThe foregoing procedure was similar to that of Example 4 except that the culture medium for the A375 cells was a DMEM culture medium containing 10% FBS (containing 100 U/mL Penicillin, 100 μg/mL of Streptomycin)."}, "guinea pigs": {"tested_on": "guinea pigs", "assay": "Allergy study of PEG-lipids in guinea pigs: systemic sensitization symptom grading", "format": "in vivo, guinea pig", "experimental": "(§1) 48 healthy guinea pigs which were fed with food normally for 5 days were randomly divided into 6 groups, with 8 guinea pigs for each group.\n(§2) Sensitization was carried out by intraperitoneal injection, and the administration was carried out once every other day at a volume of 1 mL/guinea pig for 4 times in total. On the second day after the last sensitization, each group of guinea pigs was challenged by applying a corresponding liquid medicine to the toes thereof via intravenous injection at a dose of 2 mL/guinea pig. […] Blood was collected 40 min after challenging and drug withdrawal, anticoagulated with heparin, and made into blood plasma.\nDuring sensitization and at the time of challenge administration, animals were observed and recorded for the onset and duration of symptoms, such as nasal scratching, sneezing, restlessness, jumping, panting, and purpura, and the score and grade of symptoms were determined according to the criteria for grading symptoms of systemic sensitization (Table 3)."}, "IgE": {"tested_on": "IgE", "assay": "Plasma IgE level after challenge administration in guinea pigs", "format": "in vivo", "details": "guinea pig plasma, 40 min after challenge", "experimental": "48 healthy guinea pigs which were fed with food normally for 5 days were randomly divided into 6 groups, with 8 guinea pigs for each group. Group A: negative control group (0.9% sodium chloride injection): group B: positive control group (0.15 mg/mL ovalbumin solution. available from Sigma. USA, lot No. DHO15-4): group C: M-PEG47-DTDPAM (i.e., compound 1. prepared in Example 1); group D: M-PEG47-DTDPA (i.e., compound 2. prepared in Example 2): group E: M-DTDPAM-2000 (available from Tianjin JenKem Technology Co., Ltd., lot No. ZZ409P002); group F: M-DTDPA-2000 (available from Tianjin JenKem Technology Co., Ltd., lot No. ZZ409P004).\nSensitization was carried out by intraperitoneal injection, and the administration was carried out once every other day at a volume of 1 mL/guinea pig for 4 times in total. On the second day after the last sensitization, each group of guinea pigs was challenged by applying a corresponding liquid medicine to the toes thereof via intravenous injection at a dose of 2 mL/guinea pig. The animal state was observed daily during sensitization, the reaction of guinea pigs was continuously observed for 40 min at 15 min before and after challenging via intravenous injection, and the time of onset and disappearance of symptoms was recorded. Blood was collected 40 min after challenging and drug withdrawal, anticoagulated with heparin, and made into blood plasma."}, "histamine": {"tested_on": "histamine", "assay": "Plasma histamine level after challenge administration in guinea pigs", "format": "in vivo, guinea pig", "experimental": "as §1, §2"}}}
{"molecule": "CCCCCCCCCCCCCCN(CCCCCCCCCCCCCC)C(=O)CCOCCOCCOCCOCCOCCOCCOCCOCCOCCOCCOCCOCCOCCOCCOCCOCCOCCOCCOCCOCCOCCOCCOCCOCCOCCOCCOCCOCCOCCOCCOCCOCCOCCOCCOCCOCCOCCOCCOCCOCCOCCOCCOCCOCCOCCOCCOCCOC", "note": "[compound 1]", "values": [{"measurement": "inhibitory effect on KDR mRNA (relative expression level of KDR mRNA)", "setting": "KDR mRNA", "result": "significant and continuous inhibitory effect"}]}
{"molecule": "CCCCCCCCCCCCCCN(CCCCCCCCCCCCCC)CCCOCCOCCOCCOCCOCCOCCOCCOCCOCCOCCOCCOCCOCCOCCOCCOCCOCCOCCOCCOCCOCCOCCOCCOCCOCCOCCOCCOCCOCCOCCOCCOCCOCCOCCOCCOCCOCCOCCOCCOCCOCCOCCOCCOCCOCCOCCOCCOC", "note": "[compound 2]", "values": [{"measurement": "inhibitory effect on KDR mRNA (relative expression level of KDR mRNA)", "setting": "KDR mRNA", "result": "significant and continuous inhibitory effect"}]}
{"molecule": "CCCCCCCCCCCCCC(=O)OCC(COCCOCCOCCOCCOCCOCCOCCOCCOCCOCCOCCOCCOCCOCCOCCOCCOCCOCCOCCOCCOCCOCCOCCOCCOCCOCCOCCOCCOCCOCCOCCOCCOCCOCCOCCOCCOCCOCCOCCOCCOCCOCCOCCOCCOCCOCCOC)OC(=O)CCCCCCCCCCCCC", "note": "(centres unmarked) [compound 3]", "values": [{"measurement": "inhibitory effect on KDR mRNA (relative expression level of KDR mRNA)", "setting": "KDR mRNA", "result": "significant and continuous inhibitory effect"}]}
{"molecule": "B1", "values": [{"measurement": "Allergic symptoms (grade)", "setting": "guinea pigs; after challenge administration, grade per Table 3", "result": "extremely positive"}, {"measurement": "Mean score", "setting": "guinea pigs; i.p. sensitization 4 times, i.v. challenge, scoring per Table 3", "result": 2.8}, {"measurement": "IgE level", "setting": "IgE", "result": "286.33 ± 34.67", "unit": "ng/mL"}, {"measurement": "plasma histamine level compared with group A", "setting": "histamine; guinea pig plasma after challenge", "result": "significantly different from that of group A"}, {"measurement": "Histamine level", "setting": "histamine; guinea pig plasma, 40 min after challenge", "result": "12.21 ± 4.25", "unit": "ng/mL"}]}
